Test results: patent US12018084B2, “Anti-CXCR2 antibodies and uses thereof” (Cephalon LLC, priority 2018, dated 2024)

What was measured:
Human CXCR2 [1] = target: T1, Human CXCR2 (Homo sapiens, UniProt P25025); test: Tango CXCR2-bla U2OS cell-based β-arrestin recruitment assay; design: The beta-arrestin/TEV protease fusion and the beta-lactamase reporter are separate parts of the cell line; conditions: CXCL1 or CXCL8 as agonist
T1 sequence (P25025 1-360): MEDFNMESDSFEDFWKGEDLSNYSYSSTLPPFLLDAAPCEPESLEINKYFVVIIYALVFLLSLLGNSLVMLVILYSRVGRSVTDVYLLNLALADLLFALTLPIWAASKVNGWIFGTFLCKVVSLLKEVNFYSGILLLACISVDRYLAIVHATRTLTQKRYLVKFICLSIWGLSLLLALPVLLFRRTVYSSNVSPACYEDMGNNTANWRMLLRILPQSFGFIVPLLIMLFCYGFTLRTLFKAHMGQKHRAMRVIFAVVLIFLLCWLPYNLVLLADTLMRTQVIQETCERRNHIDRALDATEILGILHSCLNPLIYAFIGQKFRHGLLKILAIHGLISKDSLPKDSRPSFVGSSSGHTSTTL
From the text: Cells were thawed, propagated, cultured and frozen according to the manufacturer's directions.
Preparation of Tango™ CXCR2-bla U2OS cells for use in cell-based assays: The manufacturer's protocol was altered to make use of 96-well plates instead of 384-well plates. Briefly, dividing cells were harvested one day prior to use. Cells were harvested and resuspended in assay medium (100% FreeStyle™ Expression Medium; Life Technologies; Cat #12338-018) at a viable cell density of 312,500 cells/mL. 128 μL of cell suspension was added per well in 96-well black-walled, clear bottom tissue culture-treated plates. Cells were incubated for 16-20 hrs at 37° C. in an atmosphere of 5% CO2 prior to use in assays.
Tango™ assay procedure: Assays were set up and run as described in the manufacturer's protocol. For antagonist assays, agonists were used at concentrations in the EC50-EC80 range. Assays were read using a FlexStation® 3 (Molecular Devices) fluorescence plate reader configured with the parameters given in Table 4. The blue/green emission ratio for each well was calculated by dividing the blue emission values by the green emission values. All inhibition curves were fitted using a four-parameter dose-response using GraphPad Prism™ (Version 7.01).
The Human CXCR2 Tango™ cell line was used to assess the ability of antibody BKO-4A8-101c to inhibit β-arrestin recruitment to agonist-activated CXCR2. All human ELR+ chemokine CXCR2 ligands were tested in antagonist dose response assays using calculated EC50 values of agonist.
The commercially available reporter cell line Tango™ CXCR2-bla U2OS (ThermoFisher Scientific) was used to assess the ability of the anti-CXCR2 antibodies to inhibit β-arrestin recruitment to agonist-activated CXCR2. Agonists were provided at their assay EC50 concentration for antagonist assays.

Murine CXCR2 = target: T2, Murine CXCR2 (Mus musculus, UniProt P35343); test: cELISA of hybridoma supernatants on cells transfected with murine CXCR2; format: binding; conditions: hybridoma supernatant; fluorescence units relative to positive control (100%)
T2 construct: expressed in transfected cells
T2 sequence (P35343 1-359): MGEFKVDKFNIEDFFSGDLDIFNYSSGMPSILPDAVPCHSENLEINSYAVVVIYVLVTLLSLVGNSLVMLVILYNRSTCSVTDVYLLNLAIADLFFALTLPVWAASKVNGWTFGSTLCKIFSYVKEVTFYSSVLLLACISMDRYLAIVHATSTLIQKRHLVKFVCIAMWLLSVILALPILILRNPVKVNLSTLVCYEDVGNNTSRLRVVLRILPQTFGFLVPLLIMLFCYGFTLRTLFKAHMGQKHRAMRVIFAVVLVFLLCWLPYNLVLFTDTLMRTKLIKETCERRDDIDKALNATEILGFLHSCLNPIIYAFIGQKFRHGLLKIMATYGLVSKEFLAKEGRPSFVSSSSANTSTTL

Human CXCR2 [2] = target: T1, Human CXCR2; test: cELISA of hybridoma supernatants on cells transfected with human CXCR2; format: binding; design: host or cells: Expi293F cells, vector pTT5; conditions: hybridoma supernatant; fluorescence units relative to positive control (100%)
Procedure: To generate hybridomas which produced monoclonal antibodies to human CXCR2, splenocytes and/or lymph node cells from animals with the highest anti-CXCR2 titres were isolated and fused to mouse myeloma cells (ATCC, CRL-1580). Cells were plated at approximately 1×10^5 cells/mL in flat bottom microtiter plates, followed by a two week incubation in selective medium (10% FCS and 1×HAT (Sigma)). Hybridomas were expanded by serial passage through four media changes in 96-well plates (96-well stages 1 to 4), then, where required, expanded into T25 and T75 flasks. […] Bound antibodies were detected using a goat anti-rat IgG-HRP (Southern Biotech, #3030-05) secondary antibody.
A panel of hybridomas was generated using lymph nodes and spleen cells from the transgenic rats engineered to express human variable region sequences. A cellular ELISA (cELISA) was used to detect human CXCR2 binding activity in supernatants taken during the expansion process for the hybridomas (Table 5). Hybridomas that retained expression of antibodies that bound CXCR2 after several passages were selected for DNA sequencing.

B1: 103c: VH SEQ ID NO: 163, VL SEQ ID NO: 110 (antibody, V domains shown)
VH: EVQLLESGGGLVQPGGSLRLSCAASGFTFSSSTQSWVRQPPGKGLEWVSAISGSGGSTYYADSVKGRFTISRDNSKNTLYLQMNSLRAEDTAVYYCAIQMGYWGQGILVTVSS
VL: QSALTQPPSASGSPGQSVTISCIGTSSDVGGYNYVSWYQQHPGKAPKLMIYEVSKRPSGVPDRFSGSKSGNTASLTVSGLQAEDEADYYCSSYAGSNNFGVFGGGTKLTVL
modifications: 4A8 VH Variant 103 M34Q_A40P_R53S_R55G_N56S_ R75K; 4A8 VL variant c D41G_N52S_N94S
potency compared to the parental antibody (Human CXCR2 [1]): reduced potency

B2: 104c: VH SEQ ID NO: 164, VL SEQ ID NO: 110 (antibody, V domains shown)
VH: EVQLLESGGGLVQPGGSLRLSCAASGFTFSSSTQSWVRQPPGKGLEWVSAISGSGGSTYYADSVKGRFTISRDNSKNTLYLQMNSLRAEDTAVYYCAIQKGYWGQGILVTVSS
VL: QSALTQPPSASGSPGQSVTISCIGTSSDVGGYNYVSWYQQHPGKAPKLMIYEVSKRPSGVPDRFSGSKSGNTASLTVSGLQAEDEADYYCSSYAGSNNFGVFGGGTKLTVL
modifications: 4A8 VH Variant 104 M34Q_A40P_R53S_R55G_N56S_ R75K_M96K; 4A8 VL variant c D41G_N52S_N94S
potency compared to the parental antibody (Human CXCR2 [1]): reduced potency

B3: 105c: VH SEQ ID NO: 165, VL SEQ ID NO: 110 (antibody, V domains shown)
VH: EVQLLESGGGLVQPGGSLRLSCAASGFTFSSSTQSWVRQPPGKGLEWVSAISGSGGSTYYADSVKGRFTISRDNSKNTLYLQMNSLRAEDTAVYYCAIQAGYWGQGILVTVSS
VL: QSALTQPPSASGSPGQSVTISCIGTSSDVGGYNYVSWYQQHPGKAPKLMIYEVSKRPSGVPDRFSGSKSGNTASLTVSGLQAEDEADYYCSSYAGSNNFGVFGGGTKLTVL
modifications: 4A8 VH Variant 105 M34Q_A40P_R53S_R55G_N56S_ R75K_M96A; 4A8 VL variant c D41G_N52S_N94S
potency compared to the parental antibody (Human CXCR2 [1]): reduced potency

B4: BKO-8H10: VH SEQ ID NO: 43, VL SEQ ID NO: 44 (antibody, V domains shown)
VH: QVQLVQSGAEVKKPGASVKVSCKASGYTFTGYYIHWVRQAPGQGLEWMGRIKPDSGGTNYAQKFQGRVTMTRDTSITTAYMELSRLRSDDTAVYYCARGGSGWDYWGQGTLVTVSS
VL: QSALTQPPSASGSPGQSVTISFTGTSRDVGDYNYVSWYQQHPGKAPKLMIYEVNKRPSGVPDRFSGSKSGNTASLTVSGLQAEDEADYYCSSYAGSNTYVFGTGTKVTVL
modifications: BKO_8H10_VH; BKO_8H10_VL
Murine CXCR2 % Positive (Murine CXCR2): 8%
Human CXCR2 % Positive (Human CXCR2 [2]): 81%

B5: BKO-9A8: VH SEQ ID NO: 47, VL SEQ ID NO: 48 (antibody, V domains shown)
VH: EVQLLESGGGLVQTGGSLRLSCAASGFTFSSNTMSWVRQAPGKGLEWVSAISGSGGRTYYVDSVKGRFTISRDNSKNTLYLQMHSLRAEDTAVYYCAIQLGSWGQGILVTVSS
VL: QSALTQPPSASGSPGQSVTISCTGTSSDVGAYNYVSWYQQHPGKAPKLMIYEVTKRPSGVPDRFSGSKSGNTASLTVSGLQAEDEADYYCSSYAGNNNFGVFGGGTKLTVL
modifications: BKO_9A8_H3_F03_VH; BKO_9A8_L1_H02_VL
Murine CXCR2 % Positive (Murine CXCR2): 8%
Human CXCR2 % Positive (Human CXCR2 [2]): 124%

B6: BKO-1B10: VH SEQ ID NO: 3, VL SEQ ID NO: 4 (antibody, V domains shown)
VH: QLQLQESGPGLVKPSETLSLTCTVSGGSIRTSSYYWGWIRQPPGKGLEYIGSIYYSGTTYYNPSLKSRVTMSVDTSKNQFSLKLSSVTAADTAVYYCARHGRVREVPPFDYWGQGTLVTVSS
VL: SSELTQDPAVSVALGQTVRITCQGDSLRYYYASWYQQKPGQAPVLVIYDENSRPSGIPDRFSGSSSGNTASLRITGTQAEDEADYYCNSRDTSGNHWAFGGGTKLTVL
modifications: BKO_1B10_VH; BKO_1B10_VL
Murine CXCR2 % Positive (Murine CXCR2): 4%
Human CXCR2 % Positive (Human CXCR2 [2]): 75%

B7: BKO-10G10: VH SEQ ID NO: 51, VL SEQ ID NO: 52 (antibody, V domains shown)
VH: QLQLQESGPGLVKPSETLSLTCTVSGGSIRRSSYYWGWIRQPPGKGLEWIGSFYNSGNTYYKPSLKSRVAISVDTPKNQFSLKLSSVTAADTAVYYCARGYSSGGFDPWGQGTLVTVSS
VL: QSALTQPASVSGSPGQSITISCTGTSSDVGGYNYVSWCQQHPGKAPKIMIFDVSNRPSGVSNRFSGSKSGNTASLTISGLQAEDEADYYCSSYTSSSTWVFGGGTRLTVL
modifications: BKO_10G10_VH; BKO_10G10_VL
Murine CXCR2 % Positive (Murine CXCR2): 4%
Human CXCR2 % Positive (Human CXCR2 [2]): 89%

B8: BKO-1D1: VH SEQ ID NO: 5, VL SEQ ID NO: 6 (antibody, V domains shown)
VH: EVQLLESGGGLVQPGGSLRLSCAASKLTFKNSAMSWVRQAPGKGLEWVSAITGSGGRTYYADSVKGRFTISRDNSKNTLYLQMNSLRAEDTAIYYCAIQMGYWGQGILVTVSS
VL: QSALTQPPSASGSPGQSVTISCTGTSSDVGGYNYVSWYQQHPGKAPKLMIYEVNKRPSGVPARFSGSKSGNTASLTVSGLQAEDEADYYCSSYAGSNNFGVFGGGTKLTVL
modifications: BKO_1D1_VH; BKO_1D1_VL
Murine CXCR2 % Positive (Murine CXCR2): 7%
Human CXCR2 % Positive (Human CXCR2 [2]): 67%

B9: BKO-2D8: VH SEQ ID NO: 9, VL SEQ ID NO: 10 (antibody, V domains shown)
VH: EVQLLESGGGLVQPGGSLRLSCAASGYTFTSSTMSWVRQAPGKGLEWVTAISGRGGRTYYADSVKGRFTISRDNSKNTLYLQMNSLRAEDTAVYYCAIQLGNWGQGILVTVSS
VL: QSALTQPPSASGSPGQSVTISCTGTSSDIGGYNYVSWYQQHPGKAPKLVIYEVNMRPSGVPARFSGSKSGNTASLTVSGLQAEDEADYYCSSYAGNDNFGVFGGGTKLSVL
modifications: BKO_2D8_VH; BKO_2D8_VL
Murine CXCR2 % Positive (Murine CXCR2): 7%
Human CXCR2 % Positive (Human CXCR2 [2]): 100%

B10: BKO-3F4: VH SEQ ID NO: 15, VL SEQ ID NO: 16 (antibody, V domains shown)
VH: EVQLLESGGGLVQPGGSLRLSCAASGLTFSSYAMSWVRQAPGKGLEWVSAISGSGGKIYYADSVKGRFTISRDNSKNTLYLQMNSLRAEDTAVYYCAIQVGYWGQGTLVTVSS
VL: QSALTQPPSASGSPGQSVTMSCTGTSSDVGGYNYVTWYQQHPGKAPKLMIYEVSKRPSGVPARFSGSKSGNTASLTVSGLQAEDEADYYCSSYAGPNNFGVFGGGTKLTVL
modifications: BKO_3F4_VH; BKO_3F4_L11_A11_VL
Murine CXCR2 % Positive (Murine CXCR2): 42%
Human CXCR2 % Positive (Human CXCR2 [2]): 86%

B11: BKO-4F10: VH SEQ ID NO: 19, VL SEQ ID NO: 20 (antibody, V domains shown)
VH: QVQLVQSGAEVKKPGASVKVSCKASGYTFTGYYIHWVRQAPGQGLEWMGRFNPNNGGTNYAQRFQGRVTMTRDTSISTAYMELSRLRSDDTAVYYCARGPTIRLWFDNWFDSWGQGTLVTVSS
VL: QSALTQPASVSGSPGQSITISCTGTSSDVGGYNYVSWYQQHPGKAPKLMIYDVSNRPSGISNRFSGSKSGNTASLTISGLQAEDEADYYCSSYTSSSTWVFGGGTKLTVL
modifications: BKO_4F10_VH; BKO_4F10_VL
Murine CXCR2 % Positive (Murine CXCR2): 7%
Human CXCR2 % Positive (Human CXCR2 [2]): 118%
